{"source": "patent US10000775B2", "about": "“Biosynthesis of 1-undecene and related terminal olefins” (The Regents of the University of California, priority 2013, dated 2018)", "key": {"E. coli": {"tested_on": "E. coli", "assay": "1-undecene production in E. coli overexpressing PFL_4321, PFL_0203 or homologs, with or without UcFatB2", "type": "cell-based", "details": "E. coli BL21 Star (pZR60), headspace GC-MS", "experimental": "E. coli, P. aeruginosa PAO-1, and P. aeruginosa PA14 strains were grown in 5 mL of LB medium overnight at 37° C., while all the other Pseudomonas and Acinetobacter strains were grown at 30° C. […] The culture was shaken in a sealed 20 mL headspace vial (Agilent certified) containing a stir bar at 30° C. for 36 hr. After incubation, an SPME fiber (30 μm polydimethylsiloxane, Supelco, Sigma-Aldrich Group, Bellefonte, Pa.) was manually inserted into the headspace vial and incubated at 25° C. for 12.5 min. GC-MS analysis was conducted on a Varian CP-3800 instrument equipped with a Varian 320-MS. […] The signals of the 1-alkenes were identified and quantified by comparison with authentic samples (MP Biomedicals), which were diluted in ethyl acetate, added to 5 mL of culture medium in a sealed headspace vial, and sampled by the same SPME-GCMS method as described above.\n[…] 1-Undecene production was detected by using the SPME-GCMS method. […]\nTo investigate whether PFL_0203 was facilitating the production of 1-undecene, this gene was individually expressed in E. coli and the cells were monitored for 1-undecene production. […]"}, "[1]": {"assay": "In vitro activity of PFL_4321 and PFL_0203 toward fatty acids with various chain lengths", "type": "biochemical", "design": "key to In vitro activity toward C8:0 / In vitro activity toward C10:0 / In vitro activity toward C12:0 / In vitro activity toward C14:0 / In vitro activity toward C16:0: ✓: indicates production of the corresponding 1-alkene from the indicated substrate; x: indicates failure to produce the corresponding 1-alkene from the indicated substrate", "experimental": "A typical condition is as follows: 1 mL of reaction mixture contains 50 mM MES buffer (pH 6.2), 300 mM NaCl, 100 μM (NH4)2Fe(SO4)2, 1 mM ascorbic acid, 100 μM fatty acid substrate or analogs, and 10 μM enzyme. The reaction was performed in a sealed headspace vial at 30° C., initiated by adding lauric acid and quenched by injecting equal volume of 5 M NaOH. 1-Undecene production was analyzed and quantified by using the SPME-GCMS method. To determine the kinetic parameters of PFL_4321 on lauric acid, initial velocities at 1, 10, 20, 50, 100, and 150 μM of lauric acid were measured (25 mM lauric acid solution was prepared by adding 0.5% tergitol and heating at 65° C. for 10 min). The reactions were quenched at 2, 4, 6, 8, and 10 seconds, and the acquired turnover rates were fit to the Michaelis-Menten equation using GraphPad Prism to obtain kcat and Km. The kcat and Km of myristic acid and capric acid were determined similarly.\nUnless otherwise noted, all experiments with PFL_0203 as described herein were performed using similar assays, procedures, and techniques as used in a given corresponding experiment as described in Example 1.\nThe fatty acid substrate specificity of PFL_0203 was investigated in a series of in vitro experiments. […] Thus, PFL_4321 and PFL_0203 share some overlap in suitable substrates; PFL_4321 is able to act on C10-C14 fatty acid substrates, and PFL_0203 is able to act on C10-C16 fatty acid substrates."}}}
{"molecule": "PFL_4321: protein of 261 amino acids from Pseudomonas fluorescens Pf-5; non-heme iron (II)-dependent enzyme converting medium-chain fatty acids into terminal olefins (protein, listed as Pseudomonas fluorescens) MIDTFSRTGPLMEAASYPAWTQQLIQDCSESKRRVVEHELYQRMRDNKLSAKVMRQYLIGGWPVVEQFALYMAQNLTKTRFARHPGEDMARRWLMRNIRVELNHADYWVHWSRAHGVTLEDLQAQQVPPELHALSHWCWHTSSADSLIVAIAATNYAIEGATGEWSALVCSNGIYAAAFPEEDRKRAMKWLKMHAQYDDAHPWEALEIIVTLAGLNPTKALQAELRQAICKSYDYMYLFLERCMQQEKTAVTRERLALAEG", "values": [{"measurement": "1-undecene produced", "setting": "E. coli", "value": "~5", "unit": "µg/mL"}, {"measurement": "In vitro activity toward C8:0", "setting": "[1]; substrate C8:0", "value": "x"}, {"measurement": "In vitro activity toward C10:0", "setting": "[1]; substrate C10:0", "value": "✓"}, {"measurement": "In vitro activity toward C12:0", "setting": "[1]; substrate C12:0", "value": "✓"}, {"measurement": "In vitro activity toward C14:0", "setting": "[1]; substrate C14:0", "value": "✓"}, {"measurement": "In vitro activity toward C16:0", "setting": "[1]; substrate C16:0", "value": "x"}]}
